Data on 1 substance can be found in paper PMC9941469.

This experiment addresses phosphorylated Smad5 (pSmad5), mouse (UniProt P97454). The experiment can be described thus: Co-Immunoprecipitation. The conditions noted are these: parent: est. 100; read off a plot.
Sequence of UniProt P97454 (P97454 whole entry): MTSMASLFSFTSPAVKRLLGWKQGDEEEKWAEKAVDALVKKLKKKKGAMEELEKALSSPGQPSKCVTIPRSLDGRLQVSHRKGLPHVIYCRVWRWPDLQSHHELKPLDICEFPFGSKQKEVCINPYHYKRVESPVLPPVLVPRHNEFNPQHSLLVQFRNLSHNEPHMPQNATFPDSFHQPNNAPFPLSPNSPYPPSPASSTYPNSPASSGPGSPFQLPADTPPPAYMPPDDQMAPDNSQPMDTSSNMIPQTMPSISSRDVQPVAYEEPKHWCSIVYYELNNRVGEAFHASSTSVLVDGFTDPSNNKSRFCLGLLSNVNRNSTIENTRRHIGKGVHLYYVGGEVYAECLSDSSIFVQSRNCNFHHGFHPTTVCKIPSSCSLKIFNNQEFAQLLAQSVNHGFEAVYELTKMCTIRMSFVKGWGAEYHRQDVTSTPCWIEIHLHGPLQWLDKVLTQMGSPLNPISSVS

“Hoxd13 (homeobox D13), wild type, mouse (from UniProt P70217) R306L”: the percent of parent is 70 % of WT.
